Legend:
Assay in all cases: flow, Jurkat, 100 nM Ab
Human CD209 = target: T1, Human CD209 (human, UniProt Q9NNX6 1-404)
T1 construct: also called hCD209
T1 sequence: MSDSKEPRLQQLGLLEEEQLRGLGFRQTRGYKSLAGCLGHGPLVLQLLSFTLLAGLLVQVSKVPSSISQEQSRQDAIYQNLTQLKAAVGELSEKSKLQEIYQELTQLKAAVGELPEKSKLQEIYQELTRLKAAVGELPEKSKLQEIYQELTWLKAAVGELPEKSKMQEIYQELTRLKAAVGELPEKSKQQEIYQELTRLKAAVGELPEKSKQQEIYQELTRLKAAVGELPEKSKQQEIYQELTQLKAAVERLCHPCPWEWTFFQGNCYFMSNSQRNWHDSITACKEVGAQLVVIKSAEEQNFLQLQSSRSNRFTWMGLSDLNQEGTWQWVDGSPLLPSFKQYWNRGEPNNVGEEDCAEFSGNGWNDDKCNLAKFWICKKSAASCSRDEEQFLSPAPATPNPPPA

Human Clec4E = target: T2, Human Clec4E (human, UniProt Q9ULY5 1-219)
T2 construct: also called hClec4E
T2 sequence: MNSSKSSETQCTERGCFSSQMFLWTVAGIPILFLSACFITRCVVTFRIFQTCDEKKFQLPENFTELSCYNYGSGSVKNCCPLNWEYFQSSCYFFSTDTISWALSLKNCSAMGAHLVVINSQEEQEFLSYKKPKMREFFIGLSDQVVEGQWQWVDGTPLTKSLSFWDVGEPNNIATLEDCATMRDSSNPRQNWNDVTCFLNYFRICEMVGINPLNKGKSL

Human Clec7A = target: T3, Human Clec7A (human, UniProt Q9BXN2 1-247)
T3 construct: also called hClec7A
T3 sequence: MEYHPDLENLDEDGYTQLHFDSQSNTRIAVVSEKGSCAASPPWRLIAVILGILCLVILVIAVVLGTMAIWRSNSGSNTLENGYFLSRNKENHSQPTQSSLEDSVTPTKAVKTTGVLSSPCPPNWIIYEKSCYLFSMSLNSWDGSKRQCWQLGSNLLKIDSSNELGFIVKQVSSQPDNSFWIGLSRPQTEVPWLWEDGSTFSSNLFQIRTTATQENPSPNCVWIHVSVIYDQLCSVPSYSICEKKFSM

Human OLR1 = target: T4, Human OLR1 (human, UniProt P78380 1-273)
T4 construct: also called hOLR1

Human KLRF1 = target: T5, Human KLRF1 (human, UniProt Q9NZS2 1-231)
T5 construct: also called hKLRF1
T5 sequence: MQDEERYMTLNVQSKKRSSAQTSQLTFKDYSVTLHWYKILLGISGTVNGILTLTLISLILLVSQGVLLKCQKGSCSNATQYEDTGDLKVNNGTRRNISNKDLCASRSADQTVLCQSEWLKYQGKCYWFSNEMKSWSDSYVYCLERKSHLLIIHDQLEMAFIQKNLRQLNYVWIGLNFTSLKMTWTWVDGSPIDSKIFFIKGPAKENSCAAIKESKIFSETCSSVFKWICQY

human CD161 = target: T6, human CD161 (human, UniProt Q12918 1-225)
T6 construct: UniProt Q12918; also called hCD161; KLRB1

Human Clec12B = target: T7, Human Clec12B (human, UniProt Q2HXU8 1-276)
T7 construct: also called hClec12B
T7 sequence: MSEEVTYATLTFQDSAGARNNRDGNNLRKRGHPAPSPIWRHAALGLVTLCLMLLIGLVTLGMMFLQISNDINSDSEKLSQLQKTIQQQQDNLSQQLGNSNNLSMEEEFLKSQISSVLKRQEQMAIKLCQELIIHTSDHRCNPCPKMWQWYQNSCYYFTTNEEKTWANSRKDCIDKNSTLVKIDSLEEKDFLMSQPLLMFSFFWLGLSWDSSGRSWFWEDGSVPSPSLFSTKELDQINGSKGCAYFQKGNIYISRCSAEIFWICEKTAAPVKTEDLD

Human Clec9A = target: T8, Human Clec9A (human, UniProt Q6UXN8 1-241)
T8 construct: also called hClec9A
T8 sequence (Q6UXN8 whole entry): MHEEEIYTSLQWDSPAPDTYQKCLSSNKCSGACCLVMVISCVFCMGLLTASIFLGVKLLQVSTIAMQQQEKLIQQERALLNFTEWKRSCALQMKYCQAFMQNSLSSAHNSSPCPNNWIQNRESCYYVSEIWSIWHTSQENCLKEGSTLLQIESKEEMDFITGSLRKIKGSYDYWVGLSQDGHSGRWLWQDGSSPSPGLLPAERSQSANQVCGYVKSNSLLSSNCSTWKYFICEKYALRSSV

B1: anti-CD161 KW17 (antibody, V domains shown)
VH: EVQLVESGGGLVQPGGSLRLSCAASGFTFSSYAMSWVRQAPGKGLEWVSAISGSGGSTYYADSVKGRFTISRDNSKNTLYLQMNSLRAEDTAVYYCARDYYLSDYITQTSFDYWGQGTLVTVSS
VL: QSVLTQPPSVSGAPGQRVTISCTGSSSNIGAGYDVHWYQQLPGTAPKLLIYGNSNRPSGVPDRFSGSKSGTSASLAITGLQAEDEADYYCQSYDSSHTVFGGGTQLTVL
notes: Human, lambda light chain; scFv-Fc or full IgG not clear; also called KW17-Fc
Human CD209
  MFI normalized to WT: 0.92
Human Clec4E
  MFI normalized to WT: 0.94
Human Clec7A
  MFI normalized to WT: 1.13
Human OLR1
  MFI normalized to WT: 0.98
Human KLRF1
  MFI normalized to WT: 0.89
Human CD161
  MFI normalized to WT: 53.9
Human Clec12B
  MFI normalized to WT: 1.04
Human Clec9A
  MFI normalized to WT: 1.07

Reference: patent publication US20210122826A1 (MIT, published 2021)
